Experiment in all cases: EMSA
What all share (details): 25 mM Tris-HCl pH 7.5, 50 mM KCl, 0.5 mM MgCl2, 100 µg/ml BSA, 1 mM DTT, 10% glycerol; 0.1 µM DNA; 37°C, 30 min; 1% agarose gel, ethidium bromide
A general note: Mobility shift assays separate free from complexed probe on a gel.

In data set [1] the test system is MBP-3B2ct (C-terminal DNMT3B2) (human).
The subject of data set [2] is MBP-3B2ct (C-terminal DNMT3B2);GST-3B2ct (human;human).
Data set [3] deals with MBP-3B2ct (C-terminal DNMT3B2);GST-3B3ct (human;human).
Data set [4] relates to MBP-3B3ct (C-terminal DNMT3B3) (human).
Data set [5] deals with MBP-3B4ct (C-terminal DNMT3B4) (human).

With 420 bp DNMT3B PWWP fragment, the Kd (as a rule, the free concentration of one partner at which half of the binding sites on the other are occupied at equilibrium, for simple one-to-one binding) in data set [1] worked out at 220 nM; in data set [2] it was 400 nM; in data set [3] it was 1500 nM; in data set [4] it was 160 nM; in data set [5], 2420 nM.

The record behind these values is article PMC3716610.
